Results on 13 substances are retold here after PMC7262597.

What all share (assay): GST pull-down (autoradiography, quantified)
One assay has as its target GST-Atg8a K48Q (UniProt Q9W2S2). As to conditions: percentage binding relative to 10% of the input; 3 independent experiments; parent: est. 25; read off a plot.
Assay [1] deals with radiolabeled myc-Sequoia-WT. Conditions: percentage binding relative to 10% of the input; 3 independent experiments; parent: est. 25; read off a plot.
The target of the next assay is GST-Atg8a K46Q Y49A. Conditions: percentage binding relative to 10% of the input; 3 independent experiments; parent: est. 25; read off a plot.
Assay [2] has as its target GST-Atg8a-LDS mutant (Y49A) (UniProt Q9W2S2). Conditions: parent: est. 25, read off a plot.
Another assay addresses GST-Atg8a-WT (UniProt Q9W2S2). Conditions: parent: est. 25, read off a plot.
The target of the next assay is GST-Atg8a K47Q (UniProt Q9W2S2). As to conditions: percentage binding relative to 10% of the input; 3 independent experiments; parent: est. 25; read off a plot.
The target in assay [3] is radiolabeled GFP-Sequoia-WT. Conditions: parent: est. 25; read off a plot.
The target of a further assay is GST-Atg8a K46Q (UniProt Q9W2S2). Conditions: percentage binding relative to 10% of the input; 3 independent experiments; parent: est. 25; read off a plot.
The mark [4] stands for this setting: percentage binding relative to 10% of the input, 3 independent experiments.

GST-Atg8a-LDS mutant (Y49A), sequence (Q9W2S2 entry or part of it Y49A | Y49A): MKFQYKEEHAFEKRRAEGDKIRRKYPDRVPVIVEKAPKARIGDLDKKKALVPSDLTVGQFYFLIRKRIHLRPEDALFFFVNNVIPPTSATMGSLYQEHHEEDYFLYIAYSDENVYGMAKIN
GST-Atg8a-WT, sequence (Q9W2S2 entry or part of it): as the sequence (Q9W2S2 entry or part of it Y49A | Y49A) above, with A49Y counted along it
GST-Atg8a K47Q, sequence (Q9W2S2 entry or part of it K47Q | K47Q): as the sequence (Q9W2S2 entry or part of it Y49A | Y49A) above, with K47Q, A49Y counted along it
GST-Atg8a K48Q, sequence (Q9W2S2 entry or part of it K48Q | K48Q): as the sequence (Q9W2S2 entry or part of it Y49A | Y49A) above, with K48Q, A49Y counted along it
GST-Atg8a K46Q, sequence (Q9W2S2 entry or part of it K46Q | K46Q): as the sequence (Q9W2S2 entry or part of it Y49A | Y49A) above, with K46Q, A49Y counted along it

For “m11; m1 Sequoia:Y313A; Sequoia:I316A; Atg8a:K48Q”, the response in the assay with GST-Atg8a K48Q is 8 % Binding. With GST-Atg8a-WT (from UniProt Q9W2S2) K46Q, the response in assay [1] amounted to 25 % Binding. For “m11; m1 Sequoia:Y313A; Sequoia:I316A; Atg8a:K46Q; Atg8a:Y49A”, the response with GST-Atg8a K46Q Y49A is 3.2 % Binding. On to “m11; m1 Sequoia:Y313A; Sequoia:I316A; Atg8a:Y49A”, for which the response in assay [2] (setting [4]) stood at 2.9 % Binding. With “radiolabeled myc-Sequoia-WT Y313A; I316A”, in the assay with GST-Atg8a-WT (setting [4]), the response was 14 % Binding. Consider “m11; m1 Sequoia:Y313A; Sequoia:I316A; Atg8a:K47Q”, for which the response with GST-Atg8a K47Q came to 12 % Binding. In the case of “radiolabeled GFP-Sequoia-WT Y313A; I316A”, the response with GST-Atg8a-WT was 14 % of binding. Consider GST-Atg8a-WT (from UniProt Q9W2S2) K48Q, for which, in assay [1], the response was 12 % Binding. For the substance GST-Atg8a-WT (from UniProt Q9W2S2) Y49A, the response in assay [3] was 8 % of binding; in assay [1] it was 2.7 % Binding. Turning to “m11; m1 Sequoia:Y313A; Sequoia:I316A; Atg8a:K46Q”, in the assay with GST-Atg8a K46Q, the response turned out to be 18 % Binding. Regarding “GST-Atg8a-WT (from UniProt Q9W2S2) K46Q; Y49A”, the response in assay [1] was 3.6 % Binding.

On to “m9; m1 Sequoia:Y313A; Sequoia:I316A; Atg8a:Y49A”, for which the response in assay [2] is 5.6 % of binding.

For the substance GST-Atg8a-WT (from UniProt Q9W2S2) K47Q, the response in assay [1] worked out at 24 % Binding.
